Test [1] addresses α/β TCR/CD3 complex on Jurkat, Clone E6-1 cells (human) (UniProt P07766). Description: flow cytometry on Jurkat Clone E6-1 cells, Fab titration 10 µg/ml to 10 ng/ml; AUC of MFI vs log concentration; the reference itself, set to zero.
For test [2] the target is unchanged. Put plainly: flow cytometry on Jurkat Clone E6-1 cells, Fab titration 10 µg/ml to 10 ng/ml; EC50 of MFI, fold decrease vs TPP-1374. In general terms: In flow cytometry, cells or beads pass a laser one at a time.
The target is the same in test [3]. Put plainly: flow cytometry on Jurkat Clone E6-1 cells, Fab titration 10 µg/ml to 10 ng/ml; AUC of MFI vs log concentration, gain vs TPP-1374.

The record followed here is US20250051445A1.

Sequence of UniProt P07766 (P07766 23-207, chain 1 of 4): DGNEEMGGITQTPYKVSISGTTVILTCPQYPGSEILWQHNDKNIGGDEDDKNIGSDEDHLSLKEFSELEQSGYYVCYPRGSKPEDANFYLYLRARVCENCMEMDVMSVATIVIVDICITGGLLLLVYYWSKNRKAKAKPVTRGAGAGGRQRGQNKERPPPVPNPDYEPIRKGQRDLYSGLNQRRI
Sequence of UniProt P07766 (P09693 23-182, chain 2 of 4, further chain): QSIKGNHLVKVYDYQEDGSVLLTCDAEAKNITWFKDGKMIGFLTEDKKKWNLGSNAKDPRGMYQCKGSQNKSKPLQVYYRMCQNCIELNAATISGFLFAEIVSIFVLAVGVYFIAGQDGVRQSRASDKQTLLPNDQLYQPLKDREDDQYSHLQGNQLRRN
Sequence of UniProt P07766 (P04234 22-171, chain 3 of 4, further chain): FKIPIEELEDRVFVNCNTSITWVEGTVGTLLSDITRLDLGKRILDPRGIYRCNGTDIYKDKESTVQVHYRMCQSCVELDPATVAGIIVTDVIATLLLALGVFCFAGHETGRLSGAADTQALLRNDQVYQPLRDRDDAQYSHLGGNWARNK
Sequence of UniProt P07766 (P20963 22-164, chain 4 of 4, further chain): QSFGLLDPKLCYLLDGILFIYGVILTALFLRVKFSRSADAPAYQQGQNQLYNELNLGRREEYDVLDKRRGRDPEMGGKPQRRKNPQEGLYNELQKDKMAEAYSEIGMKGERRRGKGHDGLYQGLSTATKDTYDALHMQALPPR

B1: TPP-1374, Fab fragment of BMA031 (V36) (Fab, V domains shown)
VH: EVQLVQSGAEVKKPGASVKVSCKASGYKFTSYVMHWVRQAPGQGLEWMGYINPYNDVTKYAEKFQGRVTLTSDTSTSTAYMELSSLRSEDTAVHYCARGSYYDYEGFVYWGQGTLVTVSS
VL: QIQMTQSPSSLSASVGDRVTITCSATSSVSYMHWYQQKPGKAPKRWIYDTSKLASGVPSRFSGSGSGTDYTLTISSLQPEDAATYYCQQWSSNPLTFGGGTKVEIKR
Regarding B1, in test [1], the % gain in binding AUC stood at 0%.

B2: TPP-1375 Fab fragment (Fab, V domains shown)
VH: EVQLVQSGAEVKKPGASVKVSCKASGYKFRSYVMHWVRQAPGQGLEWMGYINPYNDVTKYAEKFQGRVTLTSDTSTSTAYMELSSLRSEDTAVHYCARGSYYDYEGFVYWGQGTLVTVSS
VL: QIQMTQSPSSLSASVGDRVTITCSATSSVSYMHWYQQKPGKAPKRWIYDTSKLASGVPSRFSGSGSGTDYTLTISSLQPEDAATYYCQQWSSNPLTFGGGTKVEIKR
Take B2: the fold decrease in EC50 in test [2] is 2.1 fold. This molecule returned a % gain in binding AUC in test [3] of 87%.

B3: TPP-1376 Fab fragment (Fab, V domains shown)
VH: EVQLVQSGAEVKKPGASVKVSCKASGYKFKSYVMHWVRQAPGQGLEWMGYINPYNDVTKYAEKFQGRVTLTSDTSTSTAYMELSSLRSEDTAVHYCARGSYYDYEGFVYWGQGTLVTVSS
VL: QIQMTQSPSSLSASVGDRVTITCSATSSVSYMHWYQQKPGKAPKRWIYDTSKLASGVPSRFSGSGSGTDYTLTISSLQPEDAATYYCQQWSSNPLTFGGGTKVEIKR
On to B3, for which the fold decrease in EC50 in test [2] came to 2.8 fold. Moreover, the % gain in binding AUC in test [3] was 83%.
